Test results as given in article PMC6126716.

Molecular target: human asialo-haptoglobin, phenotype 1-1 (Hp heterotetramer of two α1 and two β-subunits) (human) (UniProt P00738)
Assay: native MS

stoichiometry N (Hb heterodimers per Hp heterotetramer): 2
Substance: human hemoglobin holo-heterodimer (αHb and βHb) (from UniProt P69905 1-142; P68871 1-147) (complex)
